Assay results as given in paper PMC1065253.

Legend:
SeqA [1] = target: T1, SeqA (Escherichia coli, UniProt P0AFY8 1-181); assay: AFM
T1 sequence: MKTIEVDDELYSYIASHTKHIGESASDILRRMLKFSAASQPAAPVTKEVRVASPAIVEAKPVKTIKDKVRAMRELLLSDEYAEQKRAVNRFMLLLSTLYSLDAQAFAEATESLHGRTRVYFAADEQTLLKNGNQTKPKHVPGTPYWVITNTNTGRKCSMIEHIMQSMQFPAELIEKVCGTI

SeqA(D7K) = target: T2, SeqA(D7K) (Escherichia coli, UniProt P0AFY8 1-181, D7K); assay: EMSA
T2 sequence: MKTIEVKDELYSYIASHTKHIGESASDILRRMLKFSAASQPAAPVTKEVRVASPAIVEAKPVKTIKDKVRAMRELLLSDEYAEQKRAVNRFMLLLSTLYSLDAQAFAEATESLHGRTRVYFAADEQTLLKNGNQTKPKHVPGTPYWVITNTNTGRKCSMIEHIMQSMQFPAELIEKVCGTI

SeqA(E5,9K) = target: T3, SeqA(E5,9K) (Escherichia coli, UniProt P0AFY8 1-181, E5K;E9K); assay: EMSA
T3 sequence: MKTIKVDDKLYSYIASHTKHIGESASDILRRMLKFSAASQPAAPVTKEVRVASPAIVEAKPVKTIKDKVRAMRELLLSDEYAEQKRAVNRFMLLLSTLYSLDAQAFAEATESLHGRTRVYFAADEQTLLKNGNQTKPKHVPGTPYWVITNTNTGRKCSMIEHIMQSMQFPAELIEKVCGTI

SeqA(E9K) = target: T4, SeqA(E9K) (Escherichia coli, UniProt P0AFY8 1-181, E9K); assay: EMSA
T4 sequence: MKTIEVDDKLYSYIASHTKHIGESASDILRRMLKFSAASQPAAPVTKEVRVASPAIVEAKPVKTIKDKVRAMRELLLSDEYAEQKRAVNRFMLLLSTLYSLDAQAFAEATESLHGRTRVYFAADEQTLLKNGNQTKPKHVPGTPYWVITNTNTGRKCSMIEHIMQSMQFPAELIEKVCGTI

SeqA(E5K) = target: T5, SeqA(E5K) (Escherichia coli, UniProt P0AFY8 1-181, E5K); assay: EMSA
T5 sequence: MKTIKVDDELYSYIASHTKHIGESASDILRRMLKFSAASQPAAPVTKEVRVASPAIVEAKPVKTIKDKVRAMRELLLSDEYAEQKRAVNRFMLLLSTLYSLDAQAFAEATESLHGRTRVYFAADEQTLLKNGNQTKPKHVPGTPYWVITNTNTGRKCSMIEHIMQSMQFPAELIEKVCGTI

SeqA(D8K) = target: T6, SeqA(D8K) (Escherichia coli, UniProt P0AFY8 1-181, D8K); assay: EMSA
T6 sequence: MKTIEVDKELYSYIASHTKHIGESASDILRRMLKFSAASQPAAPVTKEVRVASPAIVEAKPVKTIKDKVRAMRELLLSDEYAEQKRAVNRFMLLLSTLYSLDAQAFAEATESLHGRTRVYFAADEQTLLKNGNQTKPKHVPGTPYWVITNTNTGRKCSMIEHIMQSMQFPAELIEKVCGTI

SeqA [2] = target: T1, SeqA; assay: AFM; remark: listed apart in the source
SeqA [3] = target: T1, SeqA; assay: EMSA
SeqA(T18G) = target: T7, SeqA(T18G) (Escherichia coli, UniProt P0AFY8 1-181, T18G); assay: EMSA
T7 sequence: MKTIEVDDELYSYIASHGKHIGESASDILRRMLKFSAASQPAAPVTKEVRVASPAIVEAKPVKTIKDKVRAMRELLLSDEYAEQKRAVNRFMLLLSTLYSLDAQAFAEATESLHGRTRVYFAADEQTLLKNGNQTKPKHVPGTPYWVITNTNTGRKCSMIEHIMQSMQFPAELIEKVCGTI

B1: 75 bp, two hemi-sites, 21 bp spacing (dsDNA)
DNA 1: CTGGGTATTAAAAAGAAGATCTATTTATGTTCAGTTCTGATCTGTTCTGTTCTCTTATTAGGCTCGCACTGCCCT
DNA 2: AGGGCAGTGCGAGCCTAATAAGAGAACAGAACAGATCAGAACTGAACATAAATAGATCTTCTTTTTAATACCCAG
modifications: hemi-methylated GATC (N6-methyladenine on one strand; which strand not stated)
- binding result (SeqA [1]): binds
- binding result (SeqA(D7K)): no binding
- binding result (SeqA(E5,9K)): no binding
- binding result (SeqA(E9K)): binds
- binding result (SeqA(E5K)): binds
- binding result (SeqA(D8K)): binds

B2: 75 bp, two hemi-sites, 16 bp spacing (Fig 2E) (dsDNA)
DNA 1: CTGGGTATTAAAAAGAAGATCTATTTATGTTCAGATCTGTTCTGTTCTGTTCTCTTATTAGGCTCGCACTGCCCT
DNA 2: AGGGCAGTGCGAGCCTAATAAGAGAACAGAACAGAACAGATCTGAACATAAATAGATCTTCTTTTTAATACCCAG
modifications: hemi-methylated GATC (N6-methyladenine on one strand; which strand not stated)
- binding result (SeqA [2]): binds

B3: 75 bp, two hemi-sites, 16 bp spacing (Fig 3A) (dsDNA)
DNA 1: CTGGGTATTAAAAAGAAGATCTATTTATTTAGAGATCTGTTCTATTGTGATCTCTTATTAGGATCGCACTGCCCT
DNA 2: AGGGCAGTGCGATCCTAATAAGAGATCACAATAGAACAGATCTCTAAATAAATAGATCTTCTTTTTAATACCCAG
modifications: hemi-methylated GATC (N6-methyladenine on one strand; which strand not stated)
- binding result (SeqA [3]): binds
- binding result (SeqA(T18G)): binds

B4: 75 bp, two hemi-sites, 11 bp spacing (dsDNA)
DNA 1: CTGGGTATTAAAAAGAAGATCTATTTATGATCAGTTCTGTTCTGTTCTGTTCTCTTATTAGGCTCGCACTGCCCT
DNA 2: AGGGCAGTGCGAGCCTAATAAGAGAACAGAACAGAACAGAACTGATCATAAATAGATCTTCTTTTTAATACCCAG
modifications: hemi-methylated GATC (N6-methyladenine on one strand; which strand not stated)
- binding result (SeqA [2]): binds

B5: 75 bp, two hemi-sites, 31 bp spacing (dsDNA)
DNA 1: CTGGGTATTAAAAAGAAGATCTATTTATGTTCAGTTCTGTTCTGTTCTGATCTCTTATTAGGCTCGCACTGCCCT
DNA 2: AGGGCAGTGCGAGCCTAATAAGAGATCAGAACAGAACAGAACTGAACATAAATAGATCTTCTTTTTAATACCCAG
modifications: hemi-methylated GATC (N6-methyladenine on one strand; which strand not stated)
- binding result (SeqA [2]): binds
